The text below walks through data of publication PMC10747088, “Self-Penetrating Oligonucleotide Derivatives: Features of Self-Assembly and Interactions with Serum and Intracellular Proteins”.

The data set deals with human serum albumin (HSA) (Homo sapiens, UniProt P02768 25-609). The experiment in a line: fluorescence titration (FAM); PBS; 10 uM oligomer; HSA Kd: 10 uM oligomer, PBS, 30 min, 25 C (Methods) or 37 C (Figure S7); HSA EMSA: TA/TAM buffer, 1 h, native 8% PAAG at 37 C; Ku/PARP1 EMSA: 50 mM Tris-HCl pH. The settings on record: protein: commercial, label: 5'-FAM, single strand, micelles.
human serum albumin (HSA), sequence (P02768 25-609): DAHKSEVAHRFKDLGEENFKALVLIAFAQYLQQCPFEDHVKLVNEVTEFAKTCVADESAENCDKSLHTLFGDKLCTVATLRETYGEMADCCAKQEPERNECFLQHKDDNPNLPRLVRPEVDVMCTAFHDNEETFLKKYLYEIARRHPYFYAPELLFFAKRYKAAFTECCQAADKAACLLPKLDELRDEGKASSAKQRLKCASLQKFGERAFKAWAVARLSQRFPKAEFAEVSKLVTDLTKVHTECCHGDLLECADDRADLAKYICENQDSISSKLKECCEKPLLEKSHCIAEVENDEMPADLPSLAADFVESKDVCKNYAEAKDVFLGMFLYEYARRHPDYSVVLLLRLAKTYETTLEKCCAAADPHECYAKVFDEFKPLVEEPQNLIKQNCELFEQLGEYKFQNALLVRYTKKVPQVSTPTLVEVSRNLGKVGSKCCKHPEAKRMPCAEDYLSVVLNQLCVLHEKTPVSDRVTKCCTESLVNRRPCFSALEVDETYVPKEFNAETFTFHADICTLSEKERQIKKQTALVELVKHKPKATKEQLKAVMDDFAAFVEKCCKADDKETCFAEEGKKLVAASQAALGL

B1: FAM-TZD17 (FAM-TZ17) (ssDNA)
DNA: AGTCTCGACTTGCTATT
modifications: triazinyl phosphoramidate with two dodecyl groups at the last internucleotide phosphate (T16*T17)
For B1, binding (can form weak hairpin or self-dimers) was characterised by a dissociation constant (Kd) of 1200 ± 200 nM.

B2: FAM-TZD16 (FAM-TZ16) (ssDNA)
DNA: CTGACTATGAAGTATT
modifications: triazinyl phosphoramidate with two dodecyl groups at the last internucleotide phosphate (T15*T16)
Consider B2, for which the Kd (in general, the concentration at which binding is half-saturated) was 1500 ± 100 nM.
